This passage reports Kd results from patent publication US20120121587A1 (Chugai, published 2012).

First the molecules themselves.
T1: Human recombinant AXL-FND1 (GST-FND1), from pET-41b(+) (human, UniProt P30530 225-331)
T1 construct: Expressed in E. coli, purified on Glutathione Sepharose; analyte in all Biacore measurements; GST put first by the usual layout of pET-41; not shown: GST-tag of vector pET-41b(+) (Novagen)
T1 sequence (looked up): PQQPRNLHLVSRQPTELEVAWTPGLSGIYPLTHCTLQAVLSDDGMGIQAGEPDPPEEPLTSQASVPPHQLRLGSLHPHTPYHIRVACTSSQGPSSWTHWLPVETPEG

B1: chH/L0 (antibody, V domains shown, not shown: a dimerising Fc or GST)
VH: QVQLKQSGPGLVAPSQSLSITCTVSGLSLTSFGVDWVRQSPGKGLEWLGVIWGGGSTNYNSALKSRLSISKDNSKSQVFLKMNSLQTDDTAMYYCAGEGSKYGAWFAYWGQGTLVTVSA
VL: DVVMTQSPLSLPVTLGQPASISCRSSQNIVHTNGNTYLEWYQQKPGKAPELLIYKVSNRFSGVPDRFSGSGSGTDFTLKISRVEAEDVGVYYCFQGSHIPFTFGQGTKLEIKR
notes: Chimeric H chain with humanized L chain
B2: H6/L0 (antibody, V domains shown, not shown: a dimerising Fc or GST)
VH: B1 VH with G97R
VL: B1 VL
notes: H6 is chH with arginine for glycine at Kabat position 94
B3: H49/L0 (antibody, human IgG1, kappa)
heavy: not shown
light: DVVMTQSPLSLPVTLGQPASISCRSSQNIVHTNGNTYLEWYQQKPGKAPELLIYKVSNRFSGVPDRFSGSGSGTDFTLKISRVEAEDVGVYYCFQGSHIPFTFGQGTKLEIKRTVAAPSVFIFPPSDEQLKSGTASVVCLLNNFYPREAKVQWKVDNALQSGNSQESVTEQDSKDSTYSLSSTLTLSKADYEKHKVYACEVTHQGLSSPVTKSFNRGEC
B4: H48/L34 (antibody, human IgG1, kappa)
heavy: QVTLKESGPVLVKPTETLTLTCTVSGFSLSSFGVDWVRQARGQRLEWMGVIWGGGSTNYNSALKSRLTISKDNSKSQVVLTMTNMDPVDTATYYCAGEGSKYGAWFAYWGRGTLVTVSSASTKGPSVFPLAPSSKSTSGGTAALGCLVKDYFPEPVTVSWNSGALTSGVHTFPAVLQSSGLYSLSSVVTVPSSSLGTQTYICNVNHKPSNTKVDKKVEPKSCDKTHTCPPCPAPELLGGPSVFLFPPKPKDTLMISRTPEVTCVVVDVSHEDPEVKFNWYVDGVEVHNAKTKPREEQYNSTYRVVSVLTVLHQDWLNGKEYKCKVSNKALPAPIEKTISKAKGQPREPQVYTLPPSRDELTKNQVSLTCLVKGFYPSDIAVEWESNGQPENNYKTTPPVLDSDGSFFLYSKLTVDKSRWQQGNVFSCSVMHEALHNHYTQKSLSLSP
light: B3 light with Q17R, Q27R, E50K
B5: H50/L28 (antibody, human IgG1, kappa)
heavy: not shown
light: B3 light with E50K
B6: H50/L10 (antibody, human IgG1, kappa)
heavy: not shown
light: B3 light with L109V, K112E
B7: H48/L37 (antibody, human IgG1, kappa)
heavy: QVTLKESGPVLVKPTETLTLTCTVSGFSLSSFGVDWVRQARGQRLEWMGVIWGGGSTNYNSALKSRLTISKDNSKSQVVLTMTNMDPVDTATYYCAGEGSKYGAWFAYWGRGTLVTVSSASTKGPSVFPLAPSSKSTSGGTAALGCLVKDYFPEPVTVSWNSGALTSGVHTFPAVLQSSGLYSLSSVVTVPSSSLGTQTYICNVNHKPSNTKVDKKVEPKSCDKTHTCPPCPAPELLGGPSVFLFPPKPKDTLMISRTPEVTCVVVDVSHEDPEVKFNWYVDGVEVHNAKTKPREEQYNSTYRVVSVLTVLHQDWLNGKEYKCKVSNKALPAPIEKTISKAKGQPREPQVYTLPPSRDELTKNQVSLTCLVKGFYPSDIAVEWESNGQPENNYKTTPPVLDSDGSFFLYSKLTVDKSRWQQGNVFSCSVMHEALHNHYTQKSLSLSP
light: B3 light with Q17R, Q27R, E50K, Q105R
B8: H47/L35 (antibody, human IgG1, kappa)
heavy: not shown
light: B3 light with Q27R, E50K, Q105R
B9: H48/L28 (antibody, human IgG1, kappa)
heavy: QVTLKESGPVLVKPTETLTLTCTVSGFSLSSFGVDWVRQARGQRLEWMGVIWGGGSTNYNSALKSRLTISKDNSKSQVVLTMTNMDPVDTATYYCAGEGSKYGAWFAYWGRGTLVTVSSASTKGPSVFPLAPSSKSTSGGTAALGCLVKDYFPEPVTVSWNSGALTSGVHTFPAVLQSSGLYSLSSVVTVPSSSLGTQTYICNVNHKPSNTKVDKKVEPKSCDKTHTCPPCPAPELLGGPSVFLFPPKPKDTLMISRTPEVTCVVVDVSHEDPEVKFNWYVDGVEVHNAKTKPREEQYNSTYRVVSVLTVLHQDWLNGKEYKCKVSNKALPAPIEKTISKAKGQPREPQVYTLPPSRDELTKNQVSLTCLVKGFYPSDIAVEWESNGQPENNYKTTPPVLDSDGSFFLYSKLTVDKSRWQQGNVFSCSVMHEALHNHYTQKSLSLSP
light: B3 light with E50K
B10: H50/L35 (antibody, human IgG1, kappa)
heavy: not shown
light: B3 light with Q27R, E50K, Q105R
B11: H48/L11 (antibody, human IgG1, kappa)
heavy: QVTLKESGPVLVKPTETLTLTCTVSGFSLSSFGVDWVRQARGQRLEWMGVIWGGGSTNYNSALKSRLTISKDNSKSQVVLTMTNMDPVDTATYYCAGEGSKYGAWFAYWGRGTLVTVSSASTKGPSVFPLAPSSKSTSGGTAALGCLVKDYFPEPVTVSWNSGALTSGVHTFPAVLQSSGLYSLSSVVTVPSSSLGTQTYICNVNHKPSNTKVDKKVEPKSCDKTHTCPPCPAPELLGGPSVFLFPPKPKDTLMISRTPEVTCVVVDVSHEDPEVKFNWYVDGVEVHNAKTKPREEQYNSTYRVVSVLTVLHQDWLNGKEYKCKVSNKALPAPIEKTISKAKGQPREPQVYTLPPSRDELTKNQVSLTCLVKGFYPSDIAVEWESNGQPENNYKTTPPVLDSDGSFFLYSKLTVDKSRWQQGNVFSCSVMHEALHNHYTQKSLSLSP
light: B3 light with R24Q, L109V, K112E
B12: H48/L10 (antibody, human IgG1, kappa)
heavy: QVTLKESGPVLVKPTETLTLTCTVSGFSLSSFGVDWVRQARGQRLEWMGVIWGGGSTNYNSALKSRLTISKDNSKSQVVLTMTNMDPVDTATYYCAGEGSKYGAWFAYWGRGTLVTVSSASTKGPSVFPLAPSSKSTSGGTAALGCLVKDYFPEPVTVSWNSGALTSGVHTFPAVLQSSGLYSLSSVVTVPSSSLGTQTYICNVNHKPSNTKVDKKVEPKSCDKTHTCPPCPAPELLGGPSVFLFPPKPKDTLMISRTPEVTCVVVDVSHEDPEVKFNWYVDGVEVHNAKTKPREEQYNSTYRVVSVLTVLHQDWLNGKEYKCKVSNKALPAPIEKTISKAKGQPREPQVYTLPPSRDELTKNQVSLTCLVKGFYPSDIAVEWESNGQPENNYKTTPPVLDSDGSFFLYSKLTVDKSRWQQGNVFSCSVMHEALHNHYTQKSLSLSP
light: B3 light with L109V, K112E
B13: H48/L27 (antibody, human IgG1, kappa)
heavy: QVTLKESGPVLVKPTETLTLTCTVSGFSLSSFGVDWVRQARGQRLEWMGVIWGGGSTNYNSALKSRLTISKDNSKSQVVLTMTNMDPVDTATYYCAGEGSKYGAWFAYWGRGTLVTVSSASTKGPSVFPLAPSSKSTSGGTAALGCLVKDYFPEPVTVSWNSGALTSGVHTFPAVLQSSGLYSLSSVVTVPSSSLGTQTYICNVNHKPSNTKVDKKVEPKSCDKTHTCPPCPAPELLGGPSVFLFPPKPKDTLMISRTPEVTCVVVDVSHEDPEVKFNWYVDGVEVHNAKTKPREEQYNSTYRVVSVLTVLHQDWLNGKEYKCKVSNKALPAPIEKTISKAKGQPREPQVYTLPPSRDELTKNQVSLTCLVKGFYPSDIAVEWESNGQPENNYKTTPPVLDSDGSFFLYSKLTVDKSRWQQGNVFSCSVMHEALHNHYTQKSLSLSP
light: B3 light with Q27R
B14: H47/L34 (antibody, human IgG1, kappa)
heavy: not shown
light: B3 light with Q17R, Q27R, E50K
B15: H48/L31 (antibody, human IgG1, kappa)
heavy: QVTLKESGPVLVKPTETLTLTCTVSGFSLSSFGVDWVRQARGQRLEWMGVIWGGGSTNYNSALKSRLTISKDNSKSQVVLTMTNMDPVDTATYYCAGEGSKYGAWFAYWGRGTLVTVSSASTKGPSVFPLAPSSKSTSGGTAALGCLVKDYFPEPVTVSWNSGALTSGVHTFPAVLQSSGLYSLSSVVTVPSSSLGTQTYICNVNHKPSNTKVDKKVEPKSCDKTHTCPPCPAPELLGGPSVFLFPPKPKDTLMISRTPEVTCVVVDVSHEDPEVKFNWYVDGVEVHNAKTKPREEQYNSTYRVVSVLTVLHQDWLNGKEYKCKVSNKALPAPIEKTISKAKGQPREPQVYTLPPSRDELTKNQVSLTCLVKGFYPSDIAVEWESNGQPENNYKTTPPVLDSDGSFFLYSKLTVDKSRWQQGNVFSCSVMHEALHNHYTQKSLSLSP
light: B3 light with Q27R, E50K
B16: H47/L37 (antibody, human IgG1, kappa)
heavy: not shown
light: B3 light with Q17R, Q27R, E50K, Q105R
B17: H49/L27 (antibody, human IgG1, kappa)
heavy: not shown
light: B3 light with Q27R
B18: H49/L37 (antibody, human IgG1, kappa)
heavy: not shown
light: B3 light with Q17R, Q27R, E50K, Q105R
B19: H49/L1 (antibody, human IgG1, kappa)
heavy: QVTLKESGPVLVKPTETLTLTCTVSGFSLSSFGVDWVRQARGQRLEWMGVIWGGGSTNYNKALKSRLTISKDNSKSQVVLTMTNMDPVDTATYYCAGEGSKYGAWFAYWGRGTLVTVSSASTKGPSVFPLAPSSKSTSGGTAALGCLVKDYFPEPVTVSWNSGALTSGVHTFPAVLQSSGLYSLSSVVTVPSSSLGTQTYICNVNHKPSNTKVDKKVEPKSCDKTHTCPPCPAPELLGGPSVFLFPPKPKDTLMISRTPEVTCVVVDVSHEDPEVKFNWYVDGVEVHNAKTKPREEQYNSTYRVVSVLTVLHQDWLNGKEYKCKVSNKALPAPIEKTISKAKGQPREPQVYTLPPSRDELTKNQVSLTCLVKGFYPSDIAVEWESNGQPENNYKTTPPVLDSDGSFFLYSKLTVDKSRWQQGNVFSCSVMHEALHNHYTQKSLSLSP
light: B3 light with R24Q
B20: H50/L31 (antibody, human IgG1, kappa)
heavy: not shown
light: B3 light with Q27R, E50K
B21: H49/L28 (antibody, human IgG1, kappa)
heavy: not shown
light: B3 light with E50K
B22: H50/L34 (antibody, human IgG1, kappa)
heavy: not shown
light: B3 light with Q17R, Q27R, E50K
B23: H49/L34 (antibody, human IgG1, kappa)
heavy: not shown
light: B3 light with Q17R, Q27R, E50K
B24: H47/L31 (antibody, human IgG1, kappa)
heavy: not shown
light: B3 light with Q27R, E50K
B25: H49/L10 (antibody, human IgG1, kappa)
heavy: not shown
light: B3 light with L109V, K112E
B26: H50/L37 (antibody, human IgG1, kappa)
heavy: not shown
light: B3 light with Q17R, Q27R, E50K, Q105R
B27: H48/L1 (antibody, human IgG1, kappa)
heavy: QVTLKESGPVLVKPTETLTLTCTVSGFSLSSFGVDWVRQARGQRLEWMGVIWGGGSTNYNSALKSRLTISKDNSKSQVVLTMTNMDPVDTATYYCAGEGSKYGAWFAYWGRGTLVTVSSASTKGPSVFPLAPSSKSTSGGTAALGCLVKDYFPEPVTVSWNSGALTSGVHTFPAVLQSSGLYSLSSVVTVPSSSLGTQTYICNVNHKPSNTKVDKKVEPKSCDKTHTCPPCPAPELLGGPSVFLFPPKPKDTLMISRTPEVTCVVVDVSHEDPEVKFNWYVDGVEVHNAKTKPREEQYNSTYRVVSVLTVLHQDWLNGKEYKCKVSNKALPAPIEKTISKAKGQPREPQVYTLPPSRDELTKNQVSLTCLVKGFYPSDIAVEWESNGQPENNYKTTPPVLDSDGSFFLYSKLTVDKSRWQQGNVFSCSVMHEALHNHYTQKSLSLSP
light: B3 light with R24Q
B28: H49/L11 (antibody, human IgG1, kappa)
heavy: not shown
light: B3 light with R24Q, L109V, K112E
B29: H48/L0 (antibody, human IgG1, kappa)
heavy: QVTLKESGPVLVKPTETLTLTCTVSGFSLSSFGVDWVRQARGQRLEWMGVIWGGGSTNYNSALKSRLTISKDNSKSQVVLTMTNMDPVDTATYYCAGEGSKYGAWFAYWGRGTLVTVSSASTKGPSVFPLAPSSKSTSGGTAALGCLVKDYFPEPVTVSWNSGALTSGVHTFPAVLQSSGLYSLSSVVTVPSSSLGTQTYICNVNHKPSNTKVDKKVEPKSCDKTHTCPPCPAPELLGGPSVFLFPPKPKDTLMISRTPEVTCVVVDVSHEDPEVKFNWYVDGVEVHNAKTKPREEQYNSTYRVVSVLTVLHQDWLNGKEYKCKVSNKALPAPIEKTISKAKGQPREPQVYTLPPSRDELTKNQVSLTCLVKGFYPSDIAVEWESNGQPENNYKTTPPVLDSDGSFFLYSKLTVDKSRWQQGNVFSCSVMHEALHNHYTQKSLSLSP
light: B3 light
B30: H49/L35 (antibody, human IgG1, kappa)
heavy: not shown
light: B3 light with Q27R, E50K, Q105R
B31: H50/L1 (antibody, human IgG1, kappa)
heavy: not shown
light: B3 light with R24Q
B32: H50/L27 (antibody, human IgG1, kappa)
heavy: not shown
light: B3 light with Q27R
B33: H50/L11 (antibody, human IgG1, kappa)
heavy: not shown
light: B3 light with R24Q, L109V, K112E
B34: H49/L31 (antibody, human IgG1, kappa)
heavy: not shown
light: B3 light with Q27R, E50K
B35: H48/L35 (antibody, human IgG1, kappa)
heavy: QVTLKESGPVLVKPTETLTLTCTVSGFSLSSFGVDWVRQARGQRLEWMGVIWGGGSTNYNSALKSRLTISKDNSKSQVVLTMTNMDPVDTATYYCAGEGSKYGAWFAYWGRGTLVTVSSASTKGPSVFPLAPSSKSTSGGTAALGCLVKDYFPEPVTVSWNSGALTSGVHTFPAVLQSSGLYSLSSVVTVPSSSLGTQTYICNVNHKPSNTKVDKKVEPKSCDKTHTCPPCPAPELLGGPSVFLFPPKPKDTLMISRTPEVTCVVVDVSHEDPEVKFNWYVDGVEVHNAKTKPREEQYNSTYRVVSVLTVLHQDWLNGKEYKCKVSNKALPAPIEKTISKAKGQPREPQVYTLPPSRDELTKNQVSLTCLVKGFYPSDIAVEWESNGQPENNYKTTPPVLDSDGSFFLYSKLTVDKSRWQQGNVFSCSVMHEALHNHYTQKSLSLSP
light: B3 light with Q27R, E50K, Q105R
B36: H50/L0 (antibody, human IgG1, kappa)
heavy: not shown
light: B3 light
B37: H9/L36 (antibody, human IgG1, kappa, V domains shown)
VH: QVTLKESGPVLVKPTETLTLTCTVSGFSLSSFGVDWVRQAPGKGLEWMGVIWGGGSTNYNSALKSRLTISKDNSKSQVVLTMTNMDPVDTATYYCAGEGSKYGAWFAYWGQGTLVTVSS
VL: B1 VL with G34A
B38: H36/L36 (antibody, human IgG1, kappa, V domains shown)
VH: B37 VH with P41R, K43Q, G44R
VL: B1 VL with G34A
B39: H32/L21 (antibody, human IgG1, kappa, V domains shown)
VH: B37 VH with S61E, K64Q, S65D, Q111E
VL: B1 VL with R24Q, G34A, L109V, K112E

Broadly, the Kd is the constant that tells how readily two partners part at equilibrium.

Changes are numbered by the printed parent chain.

For the first test, the target named is T1, Human recombinant AXL-FND1 (GST-FND1), …. The test can be described thus: SPR (Biacore T100): antibody captured on Protein A, GST-FND1 as analyte. The method, then: (§1) Kinetic analyses of antigen-antibody reactions of humanized AXL antibodies were carried out using Biacore T100 (BIACORE). rec-Protein A (Zymed) (hereinafter, Protein A) was immobilized onto a sensor chip, various antibodies were bound to it, then an antigen as the analyte was flushed to measure the antibody-antigen interaction. Human recombinant AXL-FND1 (prepared in 2-2; hereinafter referred to as GST-FND1) prepared at various concentrations was used as the antigen. From the sensorgrams obtained through the measurements, kinetic parameters, namely binding rate constant kₐ (1/Ms) and dissociation rate constant kd (1/s), were calculated, and Kd (M) was calculated based on these values. Biacore T100 Evaluation Software (BIACORE) was used to calculate each of the parameters.
The sensor chips were produced by immobilizing approximately 3000 RU of Protein A onto CM5 (BIACORE) by amine coupling. Using the produced sensor chip, kinetic analyses were carried out on the interaction between the Protein A-bound antibodies and GST-FND1. HBS-EP+ was used as the running buffer, and the flow rate was set to 30 μL/min. Each antibody was prepared at 1 μg/mL using the running buffer, and was subjected to binding with Protein A for two minutes. GST-FND1 as the analyte was prepared at 0.5 and 2.0 μg/mL using HBS-EP+. […]
For orientation: Surface plasmon resonance follows binding to a sensor surface in real time, without labels.
Turning to B1, the Kd came to 1.59 nM.

As for B2, the Kd was 12.3 nM.

For another test the target is unchanged. The description is as above. The source holds these as a separate data set. The essentials: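 Antibodies (1 μg/mL) were captured for 2 min on a Protein A CM5 chip. GST-FND1 (0.5 and 2.0 μg/mL) in HBS-EP+ was flowed at 30 μL/min with 2 min association and 2 min dissociation at 25° C. ka and kd were fitted from sensorgrams and Kd was calculated from them.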
Take B3: the Kd is 2.06 nM.

In the case of B4, the Kd was 2.27 nM.

For B5, the Kd stood at 1.97 nM.

Take B6: the Kd is 1.9 nM.

As for B7, the Kd came to 2.19 nM.

For the molecule B8, the Kd turned out to be 1.68 nM.

As for B9, the Kd came to 2.07 nM.

For the molecule B10, the Kd was determined as 2.24 nM.

As for B11, the Kd turned out to be 2 nM.

In the case of B12, the Kd was determined as 2.06 nM.

As for B13, the Kd worked out at 1.99 nM.

B14: the Kd is 2.2 nM.

On to B15, for which the Kd stood at 1.98 nM.

Consider B16, for which the Kd came out at 2.38 nM.

As for B17, the Kd was found to be 2.08 nM.

For the molecule B18, the Kd came to 2.43 nM.

As for B19, the Kd is 1.91 nM.

On to B20, for which the Kd turned out to be 1.93 nM.

For B21, the Kd came out at 2.11 nM.

B22: the Kd came to 2.36 nM.

Turning to B23, the Kd came to 2.21 nM.

As to B24, the Kd came to 1.83 nM.

On to B25, for which the Kd was 2.05 nM.

Turning to B26, the Kd stood at 2.72 nM.

As for B27, the Kd was 2.09 nM.

For B28, the Kd amounted to 1.92 nM.

Consider B29, for which the Kd was found to be 2.09 nM.

Take B30: the Kd was found to be 2.08 nM.

B31: the Kd was found to be 1.86 nM.

B32: the Kd stood at 1.95 nM.

Consider B33, for which the Kd turned out to be 1.82 nM.

Regarding B34, the Kd was determined as 1.94 nM.

Regarding B35, the Kd is 2.07 nM.

Turning to B36, the Kd was found to be 1.89 nM.

For another test the target is unchanged. The test is described as above. The source holds these as a separate data set. The protocol: as §1
The sensor chips were produced by immobilizing approximately 3000 RU of Protein A onto CM5 (BIACORE) by amine coupling. Using the produced sensor chip, kinetic analyses were carried out on the interaction between the Protein A-bound antibodies and GST-FND1. HBS-EP+ was used as the running buffer, and the flow rate was set to 30 μL/min. Each antibody was prepared at 1 μg/mL using the running buffer, and was subjected to binding with Protein A for two minutes. GST-FND1 as the analyte was prepared at 0.5 and 2.0 μg/mL using HBS-EP+. Measurements were carried out by first binding the various humanized AXL antibodies, chimeric AXL antibodies, or mouse AXL antibodies of interest to Protein A, then applying an analyte solution to them for a two-minute interaction, and then switching to HBS-EP+ (BIACORE) for a two-minute measurement of the dissociation phase. After completion of measurement of the dissociation phase, 30 μL of 10 mM glycine-HCl (pH 2.0) was used for washing to regenerate the sensor chip. Such binding, dissociation, and regeneration were defined as one cycle of analysis. All experiments were performed at 25° C.
Affinity measurements on the produced variants were carried out by the method of Example 2.
As to B37, the Kd worked out at 3.6 nM.

On to B38, for which the Kd worked out at 2.59 nM.

As for B39, the Kd worked out at 3.81 nM.
